From patent US6410226

B1: hsREC2 (human REC2, ATP-dependent homologous pairing protein) (protein)
chain: MGSKKLKRVGLSQELCDRLSRHQILTCQDFLCLSPLELMKVTGLSYRGVHELLCMVSRACAPKMQTAYGIKAQRSADFSPAFLSTTLSALDEALHGGVACGSLTEITGPPGCGKTQFCIMMSILATLPTNMGGLEGAVVYIDTESAFSAERLVEIAESRFPRYFNTEEKLLLTSSKVHLYRELTCDEVLQRIESLEEEIISKGIKLVILDSVASVVRKEFDAQLQGNLKERNKFLAREASSLKYLAEEFSIPVILTNQITTHLSGALASQADLVSPADDLSLSEGTSGSSCVIAALGNTWSHSVNTRLILQYLDSERRQILIAKSPLAPFTSFVYTIKEEGLVLQAYGNS
- Hill coefficient of ATP hydrolysis (ATPase activity) at ATP concentrations of <100 µM: the Hill coefficient (1.8)
